To fix the notation:
B1: full-length p115–GFP (wild type) [human] / Sec13 [human (endogenous in HEK293T)] (parent complex)
chain 1: MNFLRGVMGGQSAGPQHTEAETIQKLCDRVASSTLLDDRRNAVRALKSLSKKYRLEVGIQAMEHLIHVLQTDRSDSEIIGYALDTLYNIISNEEEEEVEENSTRQSEDLGSQFTEIFIKQQENVTLLLSLLEEFDFHVRWPGVKLLTSLLKQLGPQVQQIILVSPMGVSRLMDLLADSREVIRNDGVLLLQALTRSNGAIQKIVAFENAFERLLDIISEEGNSDGGIVVEDCLILLQNLLKNNNSNQNFFKEGSYIQRMKPWFEVGDENSGWSAQKVTNLHLMLQLVRVLVSPTNPPGATSSCQKAMFQCGLLQQLCTILMATGVPADILTETINTVSEVIRGCQVNQDYFASVNAPSNPPRPAIVVLLMSMVNERQPFVLRCAVLYCFQCFLYKNQKGQGEIVSTLLPSTIDATGNSVSAGQLLCGGLFSTDSLSNWCAAVALAHALQENATQKEQLLRVQLATSIGNPPVSLLQQCTNILSQGSKIQTRVGLLMLLCTWLSNCPIAVTHFLHNSANVPFLTGQIAENLGEEEQLVQGLCALLLGISIYFNDNSLESYMKEKLKQLIEKRIGKENFIEKLGFISKHELYSRASQKPQPNFPSPEYMIFDHEFTKLVKELEGVITKAIYKSSEEDKKEEEVKKTLEQHDNIVTHYKNMIREQDLQLEELRQQVSTLKCQNEQLQTAVTQQVSQIQQHKDQYNLLKIQLGKDNQHQGSYSEGAQMNGIQPEEIGRLREEIEELKRNQELLQSQLTEKDSMIENMKSSQTSGTNEQSSAIVSARDSEQVAELKQELATLKSQLNSQSVEITKLQTEKQELLQKTEAFAKSVEVQGETETIIATKTTDVEGRLSALLQETKELKNEIKALSEERTAIKEQLDSSNSTIAILQTEKDKLELEITDSKKEQDDLLVLLADQDQKILSLKNKLKDLGHPVEEEDELESGDQEDEDDESEDPGKDLDHI
chain 2: MVSVINTVDTSHEDMIHDAQMDYYGTRLATCSSDRSVKIFDVRNGGQILIADLRGHEGPVWQVAWAHPMYGNILASCSYDRKVIIWREENGTWEKSHEHAGHDSSVNSVCWAPHDYGLILACGSSDGAISLLTYTGEGQWEVKKINNAHTIGCNAVSWAPAVVPGSLIDHPSGQKPNYIKRFASGGCDNLIKLWKEEEDGQWKEEQKLEAHSDWVRDVAWAPSIGLPTSTIASCSQDGRVFIWTCDDASSNTWSPKLLHKFNDVVWHVSWSITANILAVSGGDNKVTLWKESVDGQWVCISDVNKGQGSVSASVTEGQQNEQ
B2: full-length p115–GFP (wild type) [human] / endogenous Sec16A (HEK293T) [human (endogenous in HEK293T)] (parent complex)
chain 1: B1 chain 1
chain 2: MQPPPQTVPSGMAGPPPAGNPRSVFWASSPYRRRANNNAAVAPTTCPLQPVTDPFAFSRQALQSTPLGSSSKSSPPVLQGPAPAGFSQHPGLLVPHTHARDSSQGPCEPLPGPLTQPRAHASPFSGALTPSAPPGPEMNRSAEVGPSSEPEVQTLPYLPHYIPGVDPETSHGGHPHGNMPGLDRPLSRQNPHDGVVTPAASPSLPQPGLQMPGQWGPVQGGPQPSGQHRSPCPEGPVPSGVPCATSVPHFPTPSILHQGPGHEQHSPLVAPPAALPSDGRDEVSHLQSGSHLANNSDPESTFRQNPRIVNHWASPELRQNPGVKNEHRPASALVNPLARGDSPENRTHHPLGAGAGSGCAPLEADSGASGALAMFFQGGETENEENLSSEKAGLSGQADFDDFCSSPGLGRPPAPTHVGAGSLCQALLPGPSNEAAGDVWGDTASTGVPDASGSQYENVENLEFVQNQEVLPSEPLNLDPSSPSDQFRYGPLPGPAVPRHGAVCHTGAPDATLHTVHPDSVSSSYSSRSHGRLSGSARPQELVGTFIQQEVGKPEDEASGSFFKQIDSSPVGGETDETTVSQNYRGSVSQPSTPSPPKPTGIFQTSANSSFEPVKSHLVGVKPFEADRANVVGEVRETCVRQKQCRPAAALPDASPGNLEQPPDNMETLCAPQVCPLPLNSTTEAVHMLPHAGAPPLDTVYPAPEKRPSARTQGPVKCESPATTLWAQSELPDFGGNVLLAPAAPALYVCAKPQPPVVQPPEEAMSGQQSRNPSSAAPVQSRGGIGASENLENPPKMGEEEALQSQASSGYASLLSSPPTESLQNPPVLIAQPDHSYNLAQPINFSVSLSNSHEKNQSWREALVGDRPAVSSWALGGDSGENTSLSGIPTSSVLSLSLPSSVAQSNFPQGSGASEMVSNQPANLLVQPPSQPVPENLVPESQKDRKAGSALPGFANSPAGSTSVVLVPPAHGTLVPDGNKANHSSHQEDTYGALDFTLSRTLENPVNVYNPSHSDSLASQQSVASHPRQSGPGAPNLDRFYQQVTKDAQGQPGLERAQQELVPPQQQASPPQLPKAMFSELSNPESLPAQGQAQNSAQSPASLVLVDAGQQLPPRPPQSSSVSLVSSGSGQAAVPSEQPWPQPVPALAPGPPPQDLAAYYYYRPLYDAYQPQYSLPYPPEPGAASLYYQDVYSLYEPRYRPYDGAASAYAQNYRYPEPERPSSRASHSSERPPPRQGYPEGYYSSKSGWSSQSDYYASYYSSQYDYGDPGHWDRYHYSARVRDPRTYDRRYWCDAEYDAYRREHSAFGDRPEKRDNNWRYDPRFTGSFDDDPDPHRDPYGEEVDRRSVHSEHSARSLHSAHSLASRRSSLSSHSHQSQIYRSHNVAAGSYEAPLPPGSFHGDFAYGTYRSNFSSGPGFPEYGYPADTVWPAMEQVSSRPTSPEKFSVPHVCARFGPGGQLIKVIPNLPSEGQPALVEVHSMEALLQHTSEQEEMRAFPGPLAKDDTHKVDVINFAQNKAMKCLQNENLIDKESASLLWNFIVLLCRQNGTVVGTDIAELLLRDHRTVWLPGKSPNEANLIDFTNEAVEQVEEEESGEAQLSFLTGGPAAAASSLERETERFRELLLYGRKKDALESAMKNGLWGHALLLASKMDSRTHARVMTRFANSLPINDPLQTVYQLMSGRMPAASTCCGDEKWGDWRPHLAMVLSNLNNNMDVESRTMATMGDTLASRGLLDAAHFCYLMAQAGFGVYTKKTTKLVLIGSNHSLPFLKFATNEAIQRTEAYEYAQSLGAETCPLPSFQVFKFIYSCRLAEMGLATQAFHYCEAIAKSILTQPHLYSPVLISQLVQMASQLRLFDPQLKEKPEEESLAAPTWLVHLQQVERQIKEGAGVWHQDGALPQQCPGTPSSEMEQLDRPGLSQPGALGIANPLLAVPAPSPEHSSPSVRLLPSAPQTLPDGPLASPARVPMFPVPLPPGPLEPGPGCVTPGPALGFLEPSGPGLPPGVPPLQERRHLLQEARSPDPGIVPQEAPVGNSLSELSEENFDGKFANLTPSRTVPDSEAPPGWDRADSGPTQPPLSLSPAPETKRPGQAAKKETKEPKKGESWFFRWLPGKKKTEAYLPDDKNKSIVWDEKKNQWVNLNEPEEEKKAPPPPPTSMPKTVQAAPPALPGPPGAPVNMYSRRAAGTRARYVDVLNPSGTQRSEPALAPADFVAPLAPLPIPSNLFVPTPDAEEPQLPDGTGREGPAAARGLANPEPAPEPKVLSSAASLPGSELPSSRPEGSQGGELSRCSSMSSLSREVSQHFNQAPGDLPAAGGPPSGAMPFYNPAQLAQACATSGSSRLGRIGQRKHLVLN

The variants in one experiment derive from B1. The experiment in a line: co-precipitation with p115–GFP, volcano plot of protein enrichment; HEK293T cells; means of biological triplicates; read off a plot.
As to chain 1 Q462D, the screen value was around 5.8.

The variants in another experiment derive from B2. The experiment is described as above.
Take chain 1 Q462D: the screen value is around 6.1.

These data come from paper PMC7619307, “The Golgi vesicle tether p115 can bind directly to the ER exit site organiser Sec16A” (Journal of cell science, 2026).
